What was measured:
Assay in all cases: FXa generation assay
[1] = biological target: Factor VIIIa D666S/S1787D swap variant (thrombin-activated B-domainless FVIII)
[2] = biological target: Factor VIIIa (WT), thrombin-activated WT B-domainless FVIII
[3] = biological target: Factor VIIIa T657Y/Y1792T swap variant (thrombin-activated B-domainless FVIII)

Kd [1]: 1.73 nM | Kd [2]: 0.92 nM | Kd [3]: 1.45 nM
Substance: FIXaβ (from UniProt P00740 47-191; P00740 227-461) (enzyme)

From PMC4870127
